Experiments:
[1] = molecular target: H3 (K9, 14, 18, 23) tetra-acetylated nucleosome (Xenopus laevis)
[2] = molecular target: H3 (K9, 14, 18, 23) tetra-acetylated nucleosome (Xenopus laevis); remark: listed apart in the source

With RSC complex (from UniProt Q02206 1-625) the initial rate of nucleosome repositioning by RSC relative to the unmodified S28C control (competitive sliding assay, 54A18 DNA, 30 °C, 1 mM ATP) [1] was 16 fold and the Km for nucleosomes of ATP hydrolysis by RSC (real-time MDCC-PBP ATPase assay, 0.3 nM RSC, 36W36 nucleosomes), against the unmodified control [2] was 3 fold lower.
